These results are taken from ChEMBL document CHEMBL1135258, “Substrate spectrum of tyrocidine thioesterase probed with randomized peptide N-acetylcysteamine thioesters” (Bioorg Med Chem Lett, 2002).

Broadly, the Km is the concentration of substrate that gives half-maximal velocity.

Common to all, as to details: Brevibacillus brevis
Substrate in data set [1]: CC(=O)NCCSC(=O)[C@H](CC(C)C)NC(=O)[C@H](CCCN)NC(=O)[C@@H](NC(=O)[C@H](Cc1ccc(O)cc1)NC(=O)[C@H](CC(C)C)NC(=O)[C@H](CC(N)=O)NC(=O)[C@@H](Cc1ccccc1)NC(=O)[C@H](Cc1ccccc1)NC(=O)[C@@H]1CCCN1C(=O)[C@H](N)Cc1ccccc1)C(C)C
Description: (§1) Apparent kinetic constant (Km) determined for tyrocidine thioesterase amplified from Bacillus brevis (ATCC8185).

Substrate in data set [2]: CC(=O)NCCSC(=O)[C@H](CC(C)C)NC(=O)[C@H](CCCN)NC(=O)[C@@H](NC(=O)[C@H](Cc1ccc(O)cc1)NC(=O)[C@H](CCC(N)=O)NC(=O)[C@@H](NC(=O)[C@@H](Cc1ccccc1)NC(=O)[C@H](Cc1ccccc1)NC(=O)[C@@H]1CCCN1C(=O)[C@H](N)Cc1ccccc1)C(C)C)C(C)C
Described as §1.

Substrate in data set [3]: CC(=O)NCCSC(=O)[C@H](CC(C)C)NC(=O)[C@H](CCCN)NC(=O)[C@@H](NC(=O)[C@H](Cc1ccc(O)cc1)NC(=O)[C@H](CCC(N)=O)NC(=O)[C@H](CC(C)C)NC(=O)[C@@H](Cc1ccccc1)NC(=O)[C@H](Cc1ccccc1)NC(=O)[C@@H]1CCCN1C(=O)[C@H](N)Cc1ccccc1)C(C)C
The data set is described as §1.

Substrate in data set [4]: CC(=O)NCCSC(=O)[C@H](CC(C)C)NC(=O)[C@H](CCCN)NC(=O)[C@@H](NC(=O)[C@H](Cc1ccc(O)cc1)NC(=O)[C@H](CCC(N)=O)NC(=O)[C@H](CC(N)=O)NC(=O)CNC(=O)[C@H](Cc1ccccc1)NC(=O)[C@@H]1CCCN1C(=O)[C@H](N)Cc1ccccc1)C(C)C
The description is as §1.

Substrate in data set [5]: CC(=O)NCCSC(=O)[C@H](CC(C)C)NC(=O)[C@H](CCCN)NC(=O)[C@@H](NC(=O)[C@H](Cc1ccc(O)cc1)NC(=O)[C@H](CCC(N)=O)NC(=O)[C@H](CC(N)=O)NC(=O)[C@@H](Cc1ccccc1)NC(=O)[C@H](CC(N)=O)NC(=O)[C@@H]1CCCN1C(=O)[C@H](N)Cc1ccccc1)C(C)C
The description is as §1.

Substrate in data set [6]: CC(=O)NCCSC(=O)[C@H](CC(C)C)NC(=O)[C@H](CCCN)NC(=O)[C@@H](NC(=O)[C@H](Cc1ccc(O)cc1)NC(=O)[C@H](CCC(N)=O)NC(=O)[C@H](CC(N)=O)NC(=O)[C@@H](Cc1ccccc1)NC(=O)[C@H](Cc1ccccc1)NC(=O)[C@H](C)NC(=O)[C@H](N)Cc1ccccc1)C(C)C
The data set is described as §1.

Substrate in data set [7]: CC(=O)NCCSC(=O)[C@H](CC(C)C)NC(=O)[C@H](CCCN)NC(=O)[C@@H](NC(=O)[C@H](Cc1ccc(O)cc1)NC(=O)[C@H](CCC(N)=O)NC(=O)[C@H](CC(N)=O)NC(=O)[C@@H](NC(=O)[C@H](Cc1ccccc1)NC(=O)[C@@H]1CCCN1C(=O)[C@H](N)Cc1ccccc1)[C@@H](C)O)C(C)C
The data set is described as §1.

Substrate in data set [8]: CC(=O)NCCSC(=O)[C@H](CC(C)C)NC(=O)[C@H](CCCN)NC(=O)[C@@H](NC(=O)[C@H](Cc1ccc(O)cc1)NC(=O)[C@H](CCC(N)=O)NC(=O)[C@H](CC(N)=O)NC(=O)[C@@H]1CCCN1C(=O)[C@H](Cc1ccccc1)NC(=O)[C@@H]1CCCN1C(=O)[C@H](N)Cc1ccccc1)C(C)C
The data set is described as §1.

Substrate in data set [9]: CC(=O)NCCSC(=O)[C@H](CC(C)C)NC(=O)[C@H](CCCN)NC(=O)[C@@H](NC(=O)[C@H](Cc1ccc(O)cc1)NC(=O)[C@H](CCC(N)=O)NC(=O)[C@H](CC(N)=O)NC(=O)[C@H](CC(N)=O)NC(=O)[C@H](Cc1ccccc1)NC(=O)[C@@H]1CCCN1C(=O)[C@H](N)Cc1ccccc1)C(C)C
Described as §1.

Substrate in data set [10]: CC(=O)NCCSC(=O)[C@H](CC(C)C)NC(=O)[C@H](CCCN)NC(=O)[C@@H](NC(=O)[C@H](Cc1ccc(O)cc1)NC(=O)[C@H](CCC(N)=O)NC(=O)[C@H](CC(N)=O)NC(=O)[C@H](CS)NC(=O)[C@H](Cc1ccccc1)NC(=O)[C@@H]1CCCN1C(=O)[C@H](N)Cc1ccccc1)C(C)C
The data set is described as §1.

Substrate in data set [11]: CC(=O)NCCSC(=O)[C@H](CC(C)C)NC(=O)[C@H](CCCN)NC(=O)[C@@H](NC(=O)[C@H](Cc1ccc(O)cc1)NC(=O)[C@H](CCC(N)=O)NC(=O)[C@H](CC(N)=O)NC(=O)[C@H](Cc1c[nH]c2ccccc12)NC(=O)[C@H](Cc1ccccc1)NC(=O)[C@@H]1CCCN1C(=O)[C@H](N)Cc1ccccc1)C(C)C
The description is as §1.

Substrate in data set [12]: CC(=O)NCCSC(=O)[C@H](CC(C)C)NC(=O)[C@H](CCCN)NC(=O)[C@@H](NC(=O)[C@H](Cc1ccc(O)cc1)NC(=O)[C@H](CCC(N)=O)NC(=O)[C@H](CC(N)=O)NC(=O)[C@H](Cc1ccc(O)cc1)NC(=O)[C@H](Cc1ccccc1)NC(=O)[C@@H]1CCCN1C(=O)[C@H](N)Cc1ccccc1)C(C)C
The data set is described as §1.

Substrate in data set [13]: CC(=O)NCCSC(=O)[C@H](CC(C)C)NC(=O)[C@H](CCCN)NC(=O)[C@H](CC(N)=O)NC(=O)[C@H](Cc1ccc(O)cc1)NC(=O)[C@H](CCC(N)=O)NC(=O)[C@H](CC(N)=O)NC(=O)[C@@H](Cc1ccccc1)NC(=O)[C@H](Cc1ccccc1)NC(=O)[C@@H]1CCCN1C(=O)[C@H](N)Cc1ccccc1
The description is as §1.

Substrate in data set [14]: CC(=O)NCCSC(=O)[C@H](CC(C)C)NC(=O)[C@H](CCCN)NC(=O)[C@H](CCCN=C(N)N)NC(=O)[C@H](Cc1ccc(O)cc1)NC(=O)[C@H](CCC(N)=O)NC(=O)[C@H](CC(N)=O)NC(=O)[C@@H](Cc1ccccc1)NC(=O)[C@H](Cc1ccccc1)NC(=O)[C@@H]1CCCN1C(=O)[C@H](N)Cc1ccccc1
Described as §1.

Substrate in data set [15]: CSCC[C@H](NC(=O)[C@H](Cc1ccccc1)NC(=O)[C@@H]1CCCN1C(=O)[C@H](N)Cc1ccccc1)C(=O)N[C@@H](CC(N)=O)C(=O)N[C@@H](CCC(N)=O)C(=O)N[C@@H](Cc1ccc(O)cc1)C(=O)N[C@H](C(=O)N[C@@H](CCCN)C(=O)N[C@@H](CC(C)C)C(=O)SCCNC(C)=O)C(C)C
The description is as §1.

B1: Thioesterase GrsT homolog tycF (Brevibacillus brevis), O30412 (protein)
chain: MKLFCFPYAGGLPGIYYSWKSRLPPTFLEIDAFEVRPHIPQPNRDVFLPTSFYELLEDVCDRITPALTETPFAFFGHSMGGLVAFELTRKLMQKGAPLPQHLFLSASRAPHAYGKLAKTYNLPHDEFVEALRKLGGTPDDVLENQELLELFLPILRADFQAVQTYEMNPDLPRQVPVNMTVLYGTEDTIALEDIWAWRDYCQGACQFFPVSGGHFFIHHQTSPILEIIQNVLKEEKTVAIHSSF
On to B1, for which the Km in [1] stood at 135 µM; in data set [2] it was 25 µM; in [3], 42 µM; in data set [4], 22 µM; in data set [5], 172 µM; in [6], 31 µM. In addition, the Km in [7] worked out at 31 µM; in data set [8] it was 132 µM; in data set [9], 19 µM; in [10] it was 27 µM; in [11] it was 7.5 µM; in data set [12], 65 µM. Moreover, the Km in data set [13] stood at 55 µM; in data set [14], 33 µM; in [15], 20 µM.
